# Assay results: PMC8902617, “A lysine-rich cluster in the N-BAR domain of ARF GTPase-activating protein ASAP1 is necessary for binding and bundling actin filaments” (The Journal of Biological Chemistry, 2022)
# Target: filamentous actin (rabbit skeletal muscle actin) (rabbit, UniProt P68135 1-377)
# Experiment: co-sedimentation; high-speed actin cosedimentation: test protein (2 μM) with F-actin (0-25 μM) in F-actin buffer (5 mM Hepes pH 8.0, 100 mM KCl, 2 mM MgCl2, 0.2 mM CaCl2, 1 mM ATP, 1 mM DTT) for 30 min, 150,000g for 90 min at 24 °C and/or 4 °C; supernatant and pellet on SDS-PAGE, % test protein in the pellet (ACAP1 also by anti-His6 immunoblot)
# Conditions: both partners purified
EC50 [nM],binding result,Binder
–,binds,"[K229A, K231A, K232A] ASAP1-BAR-PH-His6 (domain or fragment, ASAP1, BAR-PH tandem, residues 1-431; Mutant of m2; source: E. coli LOBSTR (DE3) RIL or BL21 (DE3), purified (Ni-NTA or HisTrap; buffer exchange or Sephacryl S100)) not shown"
–,binds,"Q72E ASAP1-BAR-PH-His6 single mutant (domain or fragment, ASAP1, BAR-PH tandem, residues 1-431; Mutant of m2; source: E. coli LOBSTR (DE3) RIL or BL21 (DE3), purified (Ni-NTA or HisTrap; buffer exchange or Sephacryl S100)) not shown"
–,binds,"[K283A, K284A] ASAP1-BAR-PH-His6 (domain or fragment, ASAP1, BAR-PH tandem, residues 1-431; Mutant of m2; source: E. coli LOBSTR (DE3) RIL or BL21 (DE3), purified (Ni-NTA or HisTrap; buffer exchange or Sephacryl S100)) not shown"
~1000,–,"ASAP3 BAR-PH (aa 1-394) (domain or fragment, ASAP3, BAR-PH tandem, residues 1-394; source: E. coli LOBSTR (DE3) RIL or BL21 (DE3), purified (Ni-NTA or HisTrap; buffer exchange or Sephacryl S100)) MPEQFSVAEFLAVTAEDLSSPAGAAAFAAKMPRYRGAALAREEILEGDQAILQRIKKAVRAIHSSGLGHVENEEQYREAVESLGNSHLSQNSHELSTGFLNLAVFTREVAALFKNLIQNLNNIVSFPLDSLMKGQLRDGRQDSKKQLEKAWKDYEAKMAKLEKERDRARVTGGIPGEVAQDMQRERRIFQLHMCEYLLKAGESQMKQGPDFLQSLIKFFHAQHNFFQDGWKAAQSLFPFIEKLAASVHALHQAQEDELQKLTQLRDSLRGTLQLESREEHLSRKNSGCGYSIHQHQGNKQFGTEKVGFLYKKSDGIRRVWQKRKCGVKYGCLTISHSTINRPPVKLTLLTCQVRPNPEEKKCFDLVTHNRTYHFQAEDEHECEAWVSVLQNSKD"

# More lines, now with the values behind:
Binder,EC50 [nM],binding result
"ASAP2 BAR-PH (aa 1-397) (domain or fragment, ASAP2, BAR-PH tandem, residues 1-397; source: E. coli LOBSTR (DE3) RIL or BL21 (DE3), purified (Ni-NTA or HisTrap; buffer exchange or Sephacryl S100)) not shown",~4000,–
"ASAP1 BAR-PH (residues 1-431), His6-tagged, wild type (domain or fragment, ASAP1, BAR-PH tandem, residues 1-431; also called ASAP1-BAR-PH-His6; WT BAR-PH; source: E. coli LOBSTR (DE3) RIL or BL21 (DE3), purified (Ni-NTA or HisTrap; buffer exchange or Sephacryl S100)) not shown",~1000,–
"[Q72E, Y82F, N83D] ASAP1-BAR-PH-His6 (domain or fragment, ASAP1, BAR-PH tandem, residues 1-431; Mutant of m2; source: E. coli LOBSTR (DE3) RIL or BL21 (DE3), purified (Ni-NTA or HisTrap; buffer exchange or Sephacryl S100)) not shown",–,binds
"[K283E, K284E] ASAP1-BAR-PH-His6 (domain or fragment, ASAP1, BAR-PH tandem, residues 1-431; Mutant of m2; source: E. coli LOBSTR (DE3) RIL or BL21 (DE3), purified (Ni-NTA or HisTrap; buffer exchange or Sephacryl S100)) not shown",–,binds
"[Q72A, Y82A, N83A] ASAP1-BAR-PH-His6 (domain or fragment, ASAP1, BAR-PH tandem, residues 1-431; Mutant of m2; the text prints [Q72A, Y82A, N83A] throughout; also called cluster 1b Ala triple mutant; source: E. coli LOBSTR (DE3) RIL or BL21 (DE3), purified (Ni-NTA or HisTrap; buffer exchange or Sephacryl S100)) not shown",–,binds
